Test [1] addresses C1q (Calbiochem) (UniProt P02745). Description: SPR Biacore T100, steady state, antibody immobilised. (Surface plasmon resonance follows binding to a sensor surface in real time, without labels.)
The target of test [2] is soluble hFcγRIIA^131H (human) (UniProt P12318). The test is described as above.
The target in test [3] is soluble hFcγRIIA^131R (human) (UniProt P12318). The description is as above.
Test [4] deals with soluble hFcγRIIB (human) (UniProt P31994). The test is described as above.
Test [5] has as its target soluble hFcγRIIIA FV (human) (UniProt P08637). Described as above.
Test [6] has as its target C1q (Calbiochem) (UniProt P02745). Kind of test: SPR Biacore T100; reference of the fold not given.
In test [7] the target is soluble hFcγRIIA^131H (human) (UniProt P12318). Description: SPR Biacore T100; reference of the fold not given.
Test [8] concerns the target soluble hFcγRIIA^131R (human) (UniProt P12318). Kind of test: SPR Biacore T100; reference of the fold not given.
The target in test [9] is soluble hFcγRIIB (human) (UniProt P31994). Description: SPR Biacore T100; reference of the fold not given.
For test [10], the target named is soluble hFcγRIIIA FV (human) (UniProt P08637). Description: SPR Biacore T100; reference of the fold not given.
In test [11] the target is soluble hFcγRIIIA FF (human) (UniProt P08637). Kind of test: SPR Biacore T100, steady state, antibody immobilised.
For test [12] the target is unchanged. Description: SPR Biacore T100; reference of the fold not given.
Test [13] addresses soluble hFcγ-receptor RIa (human) (UniProt P12314). Kind of test: SPR Biacore T100, steady state, antibody immobilised.
Test [14] has the same target. Description: SPR Biacore T100; reference of the fold not given.

soluble hFcγRIIIA FV (human), sequence (P08637 17-208 F176V): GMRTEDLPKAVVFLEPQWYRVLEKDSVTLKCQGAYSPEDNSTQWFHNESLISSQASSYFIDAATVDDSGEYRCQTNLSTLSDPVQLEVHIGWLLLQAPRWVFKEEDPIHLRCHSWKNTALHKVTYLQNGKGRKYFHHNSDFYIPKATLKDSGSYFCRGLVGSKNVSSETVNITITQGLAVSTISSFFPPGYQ
soluble hFcγRIIB (human), sequence (P31994 43-217 limits assumed): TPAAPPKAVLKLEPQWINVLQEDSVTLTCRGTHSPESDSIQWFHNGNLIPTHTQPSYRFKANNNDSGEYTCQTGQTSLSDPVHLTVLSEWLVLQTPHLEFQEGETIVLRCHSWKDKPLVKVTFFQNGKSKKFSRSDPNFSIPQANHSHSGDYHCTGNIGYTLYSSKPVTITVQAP
soluble hFcγRIIA^131R (human), sequence (P12318 34-217 H167R): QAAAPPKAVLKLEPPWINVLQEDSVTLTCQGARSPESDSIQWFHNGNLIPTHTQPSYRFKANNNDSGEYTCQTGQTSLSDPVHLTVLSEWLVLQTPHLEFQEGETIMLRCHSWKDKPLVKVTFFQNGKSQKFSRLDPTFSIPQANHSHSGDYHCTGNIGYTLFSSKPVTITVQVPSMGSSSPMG
soluble hFcγ-receptor RIa (human), sequence (P12314 16-288 limits assumed): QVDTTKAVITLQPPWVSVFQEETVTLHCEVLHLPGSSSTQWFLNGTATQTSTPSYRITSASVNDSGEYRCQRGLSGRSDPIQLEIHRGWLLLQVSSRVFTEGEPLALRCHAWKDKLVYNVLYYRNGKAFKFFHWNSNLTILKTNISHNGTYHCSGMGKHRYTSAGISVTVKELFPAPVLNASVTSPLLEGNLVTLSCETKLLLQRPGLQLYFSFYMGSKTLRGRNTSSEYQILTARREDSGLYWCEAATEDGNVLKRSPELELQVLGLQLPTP
C1q (Calbiochem), sequence (P02745 23-245 limits assumed, chain 1 of 3): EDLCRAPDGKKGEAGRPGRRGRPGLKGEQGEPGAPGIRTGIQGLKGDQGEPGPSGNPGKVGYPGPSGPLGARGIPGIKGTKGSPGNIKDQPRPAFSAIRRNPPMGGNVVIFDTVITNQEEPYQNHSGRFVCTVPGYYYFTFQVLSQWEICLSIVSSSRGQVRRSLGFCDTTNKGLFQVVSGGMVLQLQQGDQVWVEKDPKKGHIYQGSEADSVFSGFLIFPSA
C1q (Calbiochem), sequence (P02746 28-253 limits assumed, chain 2 of 3, further chain): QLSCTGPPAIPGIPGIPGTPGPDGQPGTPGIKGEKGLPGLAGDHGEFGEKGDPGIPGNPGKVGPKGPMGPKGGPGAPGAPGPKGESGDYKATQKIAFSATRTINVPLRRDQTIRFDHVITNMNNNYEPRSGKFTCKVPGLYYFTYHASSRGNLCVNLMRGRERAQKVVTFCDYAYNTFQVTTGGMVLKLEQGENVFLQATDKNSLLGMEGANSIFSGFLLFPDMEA
C1q (Calbiochem), sequence (P02747 29-245 limits assumed, chain 3 of 3, further chain): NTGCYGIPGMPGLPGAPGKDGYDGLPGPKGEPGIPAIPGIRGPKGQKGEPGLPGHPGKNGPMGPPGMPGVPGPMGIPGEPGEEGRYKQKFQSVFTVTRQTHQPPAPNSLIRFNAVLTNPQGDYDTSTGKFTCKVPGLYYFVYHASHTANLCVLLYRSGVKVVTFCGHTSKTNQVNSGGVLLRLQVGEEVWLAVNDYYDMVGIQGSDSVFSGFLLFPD
soluble hFcγRIIA^131H (human), sequence (P12318 34-217): as the sequence (P12318 34-217 H167R) above, with R134H counted along it

For orientation: Kd means a measure of binding affinity in units of concentration. With “4-4-20 hIgG1 Fc mutant K326E-A339T (antibody)”, the Kd was determined as 0.129 µM in test [1]; 3.18 µM in [2]; 0.548 µM in test [3]; 2.63 µM in [4]; 0.528 µM in test [5]. The Fold change in affinity in [6] was 3.8 fold; in [7] it was 1.4 fold; in [8] it was 8.7 fold; in test [9] it was 9.3 fold; in [10], 6.7 fold.
Regarding 4-4-20 hIgG1 Fc mutant P396L (antibody), the Kd in test [2] was 0.766 µM; in test [3], 4.88 µM; in [4], 6.04 µM. The results for the Fold change in affinity in test [7] and in test [8] were 4 fold and 1.8 fold, respectively.
Consider 4-4-20 hIgG1 Fc mutant I332T (antibody), for which the Kd amounted to 0.0355 µM in test [1]; 0.903 µM in test [2]; 8.54 µM in test [4]; 10.6 µM in [11]; 2.61 µM in test [5].
4-4-20 hIgG1 Fc mutant S298G (antibody): the Kd in test [2] stood at 12.9 µM; in test [3], 10.6 µM. Also, the figures for the Fold change in affinity in test [7] and in test [8] were 0.3 fold and 0.6 fold, respectively.
“4-4-20 hIgG1 Fc mutant V215I-K326E-T359A-P396L (antibody)”: the Kd was 0.137 µM in [1]; 4.79 µM in test [2]; 0.372 µM in [3]; 3.21 µM in [4]; 6.9 µM in test [11]; 0.489 µM in [5]. Further, the Fold change in affinity in test [6] stood at 2.1 fold; in test [7] it was 0.9 fold; in [8], 12.8 fold; in test [9] it was 7.6 fold; in test [12] it was 2.2 fold; in test [10], 7.2 fold.
Regarding “4-4-20 hIgG1 Fc mutant V188E-G236A-P244H-H268Y (antibody)”, the Kd in test [1] was found to be 0.405 µM; in test [13], 0.0174 µM; in test [3] it was 0.394 µM; in test [4], 10.5 µM; in test [11] it was 14 µM; in test [5] it was 5.5 µM.
For the substance 4-4-20 hIgG1 Fc mutant F243I (antibody), the Kd was determined as 0.0955 µM in [1]; 5.6 µM in test [2]; 7.72 µM in [3]; 11.8 µM in [4]; 9.93 µM in [11]; 7.05 µM in test [5]. Besides, the Fold change in affinity was 0.6 fold in test [7]; 0.9 fold in test [8]; 0.9 fold in test [9]; 1.4 fold in test [12]; 0.4 fold in [10].
Take “4-4-20 hIgG1 Fc mutant G236A-F243I-S298G-T299A-I332T (antibody)”: the Kd is 0.463 µM in test [2], 0.312 µM in [3] and 5.34 µM in test [4]. Also, the Fold change in affinity is 7.4 fold in test [7] and 18.5 fold in test [8].
With “4-4-20 hIgG1 Fc mutant G236A-K246E-F372Y-T394A-Q419L (antibody)”, the Kd in test [1] came to 0.703 µM; in test [13] it was 0.0361 µM; in test [2], 0.467 µM; in test [3] it was 0.498 µM; in [4] it was 9.8 µM; in test [11], 11.9 µM. Also, the Kd in [5] was found to be 6.76 µM. The Fold change in affinity in [6] was found to be 0.4 fold; in test [14], 0.7 fold; in test [7], 9.2 fold; in test [8] it was 9.6 fold; in test [9], 2.5 fold; in test [12], 1.1 fold. The same substance gave a Fold change in affinity in test [10] of 0.6 fold.
Consider “4-4-20 hIgG1 Fc mutant G236A-F243I-I332T (antibody)”, for which the Kd in test [1] was found to be 0.0257 µM; in test [13], 0.0423 µM; in test [2], 0.482 µM; in test [3] it was 0.944 µM; in [4] it was 16.7 µM; in test [11], 11.2 µM. This substance returned a Kd in test [5] of 7.04 µM. Besides, the Fold change in affinity in test [6] came to 0.8 fold; in test [14], 0.4 fold; in test [7] it was 8.9 fold; in test [8], 5 fold; in test [9], 1.5 fold; in [12], 1.2 fold. For the same substance, the Fold change in affinity in test [10] was determined as 0.5 fold.
In the case of “4-4-20 hIgG1 Fc mutant L163P-S183G-K222E-G236A-N276D-S298G-D312G (antibody)”, the Kd in test [1] was 0.392 µM; in test [13], 0.0666 µM; in [2], 1.06 µM; in test [3], 0.479 µM; in test [4], 14 µM; in test [11], 15.8 µM. Further, in test [5], the Kd is 9.32 µM. For the same substance, the Fold change in affinity in [14] was found to be 0.4 fold; in test [7] it was 4.1 fold; in [8] it was 9.9 fold; in test [9] it was 1.7 fold; in test [12], 0.8 fold; in test [10], 0.5 fold.
Take “4-4-20 hIgG1 Fc mutant S298G-T299A (antibody)”: the Kd in [2] stood at 7 µM; in test [3] it was 1.69 µM; in test [4], 5.68 µM. The figures for the Fold change in affinity in [7], in test [8] and in test [9] were 0.8 fold, 3 fold and 1.7 fold, respectively.
On to “4-4-20 hIgG1 Fc mutant P247L-M252L-V266L-Y278F-V302E-S354T (antibody)”, for which the Kd in [3] worked out at 0.523 µM; in test [4], 0.785 µM; in test [5] it was 3.07 µM.
For the substance “4-4-20 hIgG1 Fc mutant V211A-F243L-K326E-D399V (antibody)”, the Kd in [2] amounted to 7.16 µM; in test [3], 0.778 µM; in test [4] it was 6.12 µM; in test [5], 3.43 µM. Moreover, the Fold change in affinity is 0.6 fold in [7], 6.1 fold in [8] and 4 fold in test [9].
With 4-4-20 hIgG1 Fc mutant T394P (antibody), the figures for the Kd in test [2], in test [3] and in [4] were 5.94 µM, 8.7 µM and 10.8 µM, respectively. In addition, the Fold change in affinity in test [7] was found to be 0.5 fold; in test [8] it was 1 fold; in [9], 1.1 fold.
“4-4-20 hIgG1 Fc mutant P171S-S191C-G236A-K274M-T394P (antibody)”: the Kd in [1] worked out at 0.559 µM; in [13] it was 0.0118 µM; in [2], 0.513 µM; in test [3] it was 0.473 µM; in [4] it was 8.09 µM; in test [11], 11 µM. Besides, the Kd in test [5] is 5.57 µM. The Fold change in affinity in test [6] was 0.5 fold; in test [14] it was 1.1 fold; in [7], 8.4 fold; in [8], 10.1 fold; in test [12], 1.2 fold; in test [10], 0.3 fold.
For 4-4-20 hIgG1 Fc mutant K326E (antibody), the Kd in [1] turned out to be 0.0633 µM; in test [2] it was 1.34 µM; in test [3], 0.838 µM; in [11], 7.25 µM; in test [5] it was 0.567 µM. Moreover, the Fold change in affinity in test [6] came out at 2.2 fold; in [7], 2.5 fold; in test [8] it was 8.7 fold; in [9] it was 3.5 fold; in test [10], 2.9 fold.
Regarding “4-4-20 hIgG1 Fc mutant K205E-V211A-G237V-F243L-V273I-T366S-M428L (antibody)”, the Kd in test [1] turned out to be 0.292 µM; in test [13], 0.0436 µM; in test [2] it was 10 µM; in [3], 0.851 µM; in [4] it was 13.4 µM; in test [11], 11.6 µM. The substance also had a Kd in test [5] of 8.99 µM. Moreover, the Fold change in affinity in [14] stood at 0.4 fold; in test [7], 0.4 fold; in [8] it was 5.6 fold; in [9], 1.8 fold; in [12], 1.2 fold; in test [10], 0.4 fold.
Turning to 4-4-20 hIgG1 Fc mutant S239D (antibody), the Kd came out at 0.248 µM in test [1]; 1.46 µM in test [2]; 1.48 µM in [3]; 1.69 µM in test [11]; 0.307 µM in test [5]. The Fold change in affinity in test [6] turned out to be 0.6 fold; in test [7] it was 2.3 fold; in [8] it was 4.9 fold; in test [9], 4.3 fold; in test [12] it was 7.4 fold; in test [10] it was 5.3 fold.

Values taken from patent publication US8618251.
